The target in assay [1] is T1, human LILRB2 expressed on cells (human, UniProt Q8N423 22-597).
T1 construct: In 293T cells it was expressed from pCMV3-LILRB2-GFP; also called CHO-LILRB2; Jurkat-LILRB2
Kind of assay: flow cytometry, Jurkat-LILRB2 cells.

Assay [2] deals with T1, human LILRB2 expressed on cells. As to the kind of experiment: flow cytometry, Jurkat-LILRB2 cells; blocked ligand: APC HLA-G monomer tetramer. Background: In flow cytometry, cells or beads pass a laser one at a time.
In assay [3] the target is T2, human LILRB1 expressed on cells (human, UniProt Q8NHL6 24-650).
T2 construct: In 293T cells it was expressed from pCMV3-LILRB1-GFP; also called CHO-LILRB1; Jurkat-LILRB1
Kind of assay: flow cytometry, Jurkat-LILRB1 cells.

The target in assay [4] is T2, human LILRB1 expressed on cells. Kind of assay: flow cytometry, Jurkat-LILRB1 cells; blocked ligand: APC HLA-G trimer tetramer.
Assay [5] has as its target T3, LILRB2-ECD-HIS (SinoBiological Cat #: 14132-H02H) (human, UniProt Q8N423 22-460).
T3 construct: Bought protein; also called monomeric antigen LILRB2-ECD-HIS; not shown: His tag
Kind of assay: BLI epitope binning (Gator), monomeric antigen.

Assay [6] deals with T1, human LILRB2 expressed on cells. Kind of assay: flow cytometry, CHO-LILRB2 cells.
In assay [7] the target is T4, LILRB1-ECD-HIS (SinoBiological Cat #: 16014-H02H) (human, UniProt Q8NHL6 24-461).
T4 construct: Bought protein; also called monomeric antigen LILRB1-ECD-HIS; not shown: His tag
As to the kind of experiment: SPR (Carterra LSA), antibody captured, antigen injected.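 Further: kd obtained from kinetic analysis of antibody binding to the antigen, with association and dissociation phases fitted in the instrument software.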

For assay [8], the target named is T3, LILRB2-ECD-HIS (SinoBiological Cat #: …). The description is as above.
Assay [9] concerns the target T2, human LILRB1 expressed on cells. Kind of assay: flow cytometry, CHO-LILRB1 cells.
For assay [10] the target is unchanged. Kind of assay: flow cytometry, CHO-LILRB1 cells. This is another data set of the same source.

T2 sequence (Q8NHL6 other isoform, or with tags, fused parts or gaps limits assumed): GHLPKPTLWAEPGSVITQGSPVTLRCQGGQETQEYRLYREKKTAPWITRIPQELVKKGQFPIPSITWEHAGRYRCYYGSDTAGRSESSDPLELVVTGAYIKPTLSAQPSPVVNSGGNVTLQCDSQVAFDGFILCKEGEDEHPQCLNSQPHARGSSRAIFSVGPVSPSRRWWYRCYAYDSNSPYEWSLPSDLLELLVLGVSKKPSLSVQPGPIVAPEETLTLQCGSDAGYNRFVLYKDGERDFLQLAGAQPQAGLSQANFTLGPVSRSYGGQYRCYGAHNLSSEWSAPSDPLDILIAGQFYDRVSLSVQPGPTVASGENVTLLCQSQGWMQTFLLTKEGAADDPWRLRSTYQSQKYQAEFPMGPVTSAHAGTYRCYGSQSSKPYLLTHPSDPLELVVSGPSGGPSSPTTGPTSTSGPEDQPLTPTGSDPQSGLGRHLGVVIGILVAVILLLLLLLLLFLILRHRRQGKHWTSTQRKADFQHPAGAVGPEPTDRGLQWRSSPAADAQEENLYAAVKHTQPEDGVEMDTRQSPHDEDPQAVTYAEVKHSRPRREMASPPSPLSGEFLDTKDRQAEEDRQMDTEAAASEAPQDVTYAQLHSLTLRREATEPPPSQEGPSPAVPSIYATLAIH
T1 sequence (Q8N423 other isoform, or with tags, fused parts or gaps limits assumed): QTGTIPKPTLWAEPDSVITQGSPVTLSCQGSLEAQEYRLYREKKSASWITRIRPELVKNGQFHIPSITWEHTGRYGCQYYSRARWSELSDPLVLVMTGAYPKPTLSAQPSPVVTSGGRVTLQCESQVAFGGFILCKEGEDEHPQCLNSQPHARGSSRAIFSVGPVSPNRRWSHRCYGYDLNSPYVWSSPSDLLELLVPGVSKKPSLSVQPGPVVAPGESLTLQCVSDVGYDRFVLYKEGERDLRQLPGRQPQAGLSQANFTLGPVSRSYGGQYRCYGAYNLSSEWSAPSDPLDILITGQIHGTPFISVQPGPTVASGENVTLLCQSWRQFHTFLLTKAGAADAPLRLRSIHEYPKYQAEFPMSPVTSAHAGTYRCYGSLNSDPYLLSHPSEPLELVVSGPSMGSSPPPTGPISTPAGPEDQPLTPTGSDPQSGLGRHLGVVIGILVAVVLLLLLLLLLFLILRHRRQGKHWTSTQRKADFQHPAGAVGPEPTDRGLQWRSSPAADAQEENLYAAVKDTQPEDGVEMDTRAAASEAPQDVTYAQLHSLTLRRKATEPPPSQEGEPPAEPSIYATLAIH
T3 sequence (Q8N423 other isoform, or with tags, fused parts or gaps H02H H02H): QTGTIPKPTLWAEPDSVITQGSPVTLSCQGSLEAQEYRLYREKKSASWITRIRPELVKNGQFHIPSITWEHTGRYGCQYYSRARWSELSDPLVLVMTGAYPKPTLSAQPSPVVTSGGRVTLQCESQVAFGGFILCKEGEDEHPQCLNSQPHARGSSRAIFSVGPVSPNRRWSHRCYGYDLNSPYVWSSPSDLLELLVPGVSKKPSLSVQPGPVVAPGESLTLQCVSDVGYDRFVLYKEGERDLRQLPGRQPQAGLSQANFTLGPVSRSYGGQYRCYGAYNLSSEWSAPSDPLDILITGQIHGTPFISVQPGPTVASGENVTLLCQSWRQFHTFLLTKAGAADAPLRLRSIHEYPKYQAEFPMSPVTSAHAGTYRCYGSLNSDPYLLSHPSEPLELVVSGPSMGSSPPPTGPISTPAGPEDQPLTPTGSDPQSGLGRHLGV
T4 sequence (Q8NHL6 other isoform, or with tags, fused parts or gaps H02H H02H): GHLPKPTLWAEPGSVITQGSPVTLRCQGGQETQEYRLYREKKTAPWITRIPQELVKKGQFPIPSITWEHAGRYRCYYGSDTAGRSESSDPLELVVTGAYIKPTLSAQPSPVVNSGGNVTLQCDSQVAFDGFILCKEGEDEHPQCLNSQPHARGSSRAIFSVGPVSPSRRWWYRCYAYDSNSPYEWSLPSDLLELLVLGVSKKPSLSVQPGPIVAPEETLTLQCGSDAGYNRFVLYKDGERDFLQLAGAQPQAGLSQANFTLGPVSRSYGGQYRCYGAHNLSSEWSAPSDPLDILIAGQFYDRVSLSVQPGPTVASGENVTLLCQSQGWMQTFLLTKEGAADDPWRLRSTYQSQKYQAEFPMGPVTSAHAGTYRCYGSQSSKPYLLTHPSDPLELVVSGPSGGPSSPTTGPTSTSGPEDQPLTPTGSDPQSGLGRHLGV

B1: D2M002-101 (antibody, V domains shown)
VH: QVQLVQSGAEVKKPGASVKVSCKASGYTFTRYVMHWVRQAPGQRLEWMGWINPNNEETKYSQKFKGRVTLTRDTSASTAYMELSSLRSEDTAVYYCARADLEILPYYDHARNAMDYWGQGTLVTVSS
VL: DIQMTQSPSSVSASVGDRVTITCRASENIYSHLAWYQQKPGKAPKLLVYNAKSLQSGVPSRFSGSGSGTDFTLTISSLQPEDFATYYCQHFWSTPPTFGGGTKVEIK
notes: humanized and optimized variant tested beside D2M002-002; also called P211_A12
The EC50 is the concentration at which the effect is half-maximal. A higher EC50 goes with a need for much substance. In general, IC50 refers to the point on the concentration scale where inhibition reaches its midpoint. Read a high IC50 as weaker potency. Turning to B1, the EC50 was 0.131 µg/mL in assay [1] and 0.201 µg/mL in assay [3]. For the same molecule, the results for the IC50 in [2] and in assay [4] were 0.025 µg/mL and 0.138 µg/mL, respectively.

B2: D2M002-122 (antibody, V domains shown)
VH: QVQLVQSGAEVKKPGASVKVSCKASGYTFTSYWIEWVRQAPGQGLEWIGEILPGEGSTNYNAKFKGRVTFTTDTSTSTAYMELRSLRSDDTAVYYCARSGAGGYDSGAFAYWGQGTLVTVSS
VL: AIQLTQSPSSLSASVGDRVTITCRASESVDTYGNSFMHWYQQKPGKAPKLLVYRTSNLESGVPSRFSGSGSGTDFTLTISSLQPEDFATYYCQQSNEDPWTFGGGTKVEIK
On to B2, for which the figures for the 50% effective concentration (EC50) in assay [1] and in assay [3] were 0.111 µg/mL and 1.6 µg/mL, respectively. Moreover, the figures for the IC50 in [2] and in [4] were 0.022 µg/mL and 0.501 µg/mL, respectively.

B3: D2M002-124 (antibody, V domains shown)
VH: QVQLVQSGAEVKKPGASVKVSCKASGYTFTSYWIEWVRQAPGQGLEWIGEILPGSGSTNYNAKFKGRVTFTTDTSTSTAYMELRSLRSDDTAVYYCARSGAGGYDSGAFAYWGQGTLVTVSS
VL: AIQLTQSPSSLSASVGDRVTITCRASESVDTYGNSFMHWYQQKPGKAPKLLVYRTSNLESGVPSRFSGSGSGTDFTLTISSLQPEDFATYYCQQSNEDPWTFGGGTKVEIK
In the case of B3, the EC50 worked out at 0.145 µg/mL in assay [1] and 1.86 µg/mL in assay [3]. Besides, the figures for the IC50 in assay [2] and in assay [4] were 0.03 µg/mL and 0.427 µg/mL, respectively.

B4: Anti-LILRB2 antibody J-19.H1 (antibody, human IgG4 S228P, kappa, V domains shown)
VH: QVTLKESGPGILQPSHTLSLTCSFSGFSLNTYAMGVSWIRQPSGKGLEWLASIWWNGNKYNNPSLKSRLTVSKDTSNNQAFLKVTSVDTADTATYYCAHSRIIRFTDYVMDAWGQGASVTVSS
VL: DIQMTQSPASLSTFLGEPVTIECRASEDIYNDLAWYQQKPGKSPQLLIYNANSLHTGVPSRFSGSGSGTQYSLKINSLQSEDVASYFCQQYYDYPLTFGSGTKLEIKR
notes: also called JTX-8064
As for B4, the binding result in assay [5] was “binds”.

B5: #1 (antibody, human IgG1, V domains shown)
VH: EVQLQQSGPELVKPGASVKMSCKASGYTFTRYVMHWVKQKPGQGLEWIGYINPNNDGTKYNEKFKGKVTLTSDKSSSTAYMELSSLTSEDSAVYYCARGDLEILPYYDHARNAMDYWGQGTSVTVSS
VL: DIVMTQSPASQSASLGESVIITCRASGNIHNYLAWYQQKQGKSPQLLVYNAKTLADGVPSRFSGSGSGTQYSLKINSLQPEDFGTYYCQHFWSSPPTFGGGTKLELK
notes: also called D2M002-001
The term Kd denotes the equilibrium constant for the complex coming apart. What is called EC50 (read off the curve) is the concentration at which the effect is half-maximal. Read a high EC50 (read off the curve) as a need for much substance. On to B5, for which the values for the EC50 in assay [6] and in [10] were 0.033 µg/mL and 0.093 µg/mL, respectively. Moreover, the “gMFI (max)” value in assay [6] was 16300; in [10] it was 26800. The Kd in assay [7] is 14.7 nM; in assay [8], 2.08 nM. Besides, the “EC50 (read off the curve)” value in [9] was about 0.09 µg/mL.

These data come from patent publication US20250171534A1 (D2M BIOTHERAPEUTICS, published 2025).
